Reference: US20210171616A1 (Eli Lilly, published 2021)

T1: PACAP38 (human, K at residue 38 modified by C-terminal amidation)
T1 peptide: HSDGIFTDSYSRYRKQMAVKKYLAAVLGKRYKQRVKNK

T2: PACAP27 (human, L at residue 27 modified by C-terminal amidation)
T2 peptide: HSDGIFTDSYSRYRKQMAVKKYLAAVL

T3: VIP (UniProt P01282 125-152)
T3 peptide (looked up): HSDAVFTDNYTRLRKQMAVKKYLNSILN

T4: N-terminal biotinylated PACAP38 (Anaspec, #23590) (human, N-terminal biotin; K at residue 38 modified by C-terminal amidation (as stated for SEQ ID NO 13))
T4 construct: Bought peptide; also called Antigen (PACAP38)
T4 peptide: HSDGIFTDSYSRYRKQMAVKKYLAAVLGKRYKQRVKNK

T5: N-terminal biotinylated PACAP27 (custom synthesis, CPC Scientific) (human, N-terminal biotin; L at residue 27 modified by C-terminal amidation (as stated for SEQ ID NO 14))
T5 construct: Custom peptide; also called Antigen (PACAP27)
T5 peptide: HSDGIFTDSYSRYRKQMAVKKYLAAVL


Columns and labels:
[1] = target: T1, PACAP38; assay: cell-based or functional assay
[2] = target: T2, PACAP27; assay: cell-based or functional assay
[3] = target: T1, PACAP38; assay: cell-based or functional assay
[4] = target: T2, PACAP27; assay: cell-based or functional assay
[5] = target: T3, VIP; assay: cell-based or functional assay
[6] = target: T1, PACAP38; assay: cell-based or functional assay
[7] = target: T2, PACAP27; assay: cell-based or functional assay
[8] = target: T2, PACAP27; assay: cell-based or functional assay
[9] = target: T1, PACAP38; assay: cell-based or functional assay
[10] = target: T1, PACAP38; assay: cell-based or functional assay
[11] = target: T4, N-terminal biotinylated PACAP38 …; assay: kinetic exclusion 96-well MSD plate assay, solution equilibrium at 37 C, 30 pM biotinylated antigen
Description: (§1) Binding affinity (KD) for each antibody-antigen complex is determined using a kinetic exclusion 96-well plate-based assay (adapted from Estep et al., mAbs, 2013, 5:270-278). Briefly, a 3-fold dilution series for each Exemplified Ab (set forth in Table 1) is prepared from a starting concentration of 7290 pM to 41 fM; each series including an antibody-blank control. Samples are prepared in 3% (w/v) Blocker A solution (MSD, #R93AA-1) and a fixed final antigen concentration of 30 pM of N-terminal biotinylated PACAP27 (custom synthesis, CPC Scientific) or N-terminal biotinylated PACAP38 (Anaspec, #23590) is added to each sample. A volume of 100 μl of each antigen-antibody sample is added to individual wells of a 96-well microtiter plate (Greiner, EK-20101) in duplicate. The plate is sealed with optical adhesive film (Thermo Fisher Scientific, #4311971) and incubated at 37° C. for 3 to 4 days to allow for sample equilibrium. On the day before analysis, each row of a 96-well MSD Standard plate (MSD, #L15XA) is coated with 30 μl of the corresponding antibody (as used in the titration series) at a concentration of 3 μg/ml in phosphate buffered saline (PBS). On the day of the experiment, the MSD Standard plate is washed once with 150 μl PBS and blocked with 150 μl of 3% Blocker A solution for 45 min at 30° C. with shaking at 300 rpm on a MaxQ 4450 benchtop shaker (Thermo Fisher Scientific). Following three washes with PBS, 50 μl of each antigen-antibody sample (prepared and incubated as described above) is added to the MSD Standard plate and incubated for 150 seconds at 30° C. with shaking at 300 rpm. Following a single wash with PBS, 50 μl of 1 μg/ml SULFO-TAG labeled Streptavidin (MSD, #R32AD-5) prepared in 1% (w/v) Blocker A solution is added and the MSD Standard plate and the plate is incubated at 30° C. for 3 minutes with shaking at 300 rpm. The plate is washed three more times with PBS followed by the addition of 150 μl/well of 1× Read buffer (MSD, #R92TC-2). The MSD Standard plate is read using a MESO Quickplex SQ 120/1300 instrument (Meso Scale Discovery). Data analysis is done using SigmaPlot (Version 12.5, Systat Software) and binding affinity (KD) is determined using SigmaPlot's integrated Four Parameter Logistic Curve Model.

[12] = target: T5, N-terminal biotinylated PACAP27 (custom …); assay: as above
Description: as §1

Inhibition (IC50) of PACAP38 (100 pM) induced cAMP in hPAC1 CHO-K1 cells [3]	Inhibition (IC50) of PACAP38 (800 pM) induced cAMP in hVPAC2 CHO-K1 cells [3]	Inhibition (IC50) of PACAP27 (100 pM) induced cAMP in hPAC1 CHO-K1 cells [4]	Inhibition (IC50) of PACAP27 (800 pM) induced cAMP in hVPAC2 CHO-K1 cells [4]	Inhibition (IC50) of VIP (800 pM) induced cAMP in hVPAC2 CHO-K1 cells [5]	Percentage tryptase release in human mast cells upon addition of 1 uM PACAP38; antibody 153 uM, single point [6]	Percentage tryptase release in human mast cells upon addition of 1 uM PACAP27; antibody 153 uM, single point [7]	Percentage tryptase release upon addition of PACAP27; antibody dose 0 uM [8]	Percentage tryptase release upon addition of PACAP27; antibody dose 0.2 uM [8]	Percentage tryptase release upon addition of PACAP27; antibody dose 0.6 uM [8]	Percentage tryptase release upon addition of PACAP27; antibody dose 1.8 uM [8]	Percentage tryptase release upon addition of PACAP27; antibody dose 5.6 uM [8]	Percentage tryptase release upon addition of PACAP27; antibody dose 17 uM [8]	Percentage tryptase release upon addition of PACAP27; antibody dose 51 uM [8]	Percentage tryptase release upon addition of PACAP27; antibody dose 153 uM [8]	Percentage tryptase release upon addition of PACAP38; antibody dose 0 uM [9]	Percentage tryptase release upon addition of PACAP38; antibody dose 0.2 uM [9]	Percentage tryptase release upon addition of PACAP38; antibody dose 0.6 uM [9]	Percentage tryptase release upon addition of PACAP38; antibody dose 1.8 uM [9]	Kd [12]	Molecule	also measured
																				IgG4 mAb (negative control) (antibody)	Percentage tryptase release in human mast cells upon addition of 1 uM PACAP38; negative control antibody, single point [1]: 104%; Percentage tryptase release upon addition of PACAP38; negative control antibody dose 153 uM [1]: 79.6%; Plasma cAMP levels in CD-1 mice after iv PACAP38 (13 nmols/kg); control antibody 10 mg/kg sc [1]: 4.09 µM; Percentage tryptase release in human mast cells upon addition of 1 uM PACAP27; negative control antibody, single point [2]: 110%; Percentage tryptase release upon addition of PACAP27; negative control antibody dose 153 uM [2]: 94.8%
265 pM	294 pM	270 pM	605 pM	> 100000 pM	4.9%	21%	85.2%	78.1%	54%	11.7%	8.1%	11.6%	19.4%	10.3%	77.2%	73.7%	52.4%	25.2%	0.0116 nM	Exemplified Antibody B (antibody, human IgG4 S228P, kappa, F234A L235A, V domains shown, IgG4, kappa light chain; also called Exemplified Ab B; Ab B) VH: EVQLLESGGGLVQPGGSLRLSCAASGFTFSSYYMSWVRQAPGKGLEWVSAISLSGGSTYYAASHKGRFTISRDNSKNTLYLQMNSLRAEDTAVYYCVREVGASTHNYYGMDVWGQGTMVTVSS VL: DIQMTQSPSSLSASVGDRVTITCRASQSIWRWLAWYQQKPGKAPKLLIHDASQLFEGVPSRFSGSGSGTDFTFTISSLQPEDIATYYCQQFDLLPLTFGGGTKVEIKR	Percentage tryptase release upon addition of PACAP38; antibody dose 5.6 uM [9]: 22%; Percentage tryptase release upon addition of PACAP38; antibody dose 17 uM [9]: 14.9%; Percentage tryptase release upon addition of PACAP38; antibody dose 51 uM [9]: 14.6%; Percentage tryptase release upon addition of PACAP38; antibody dose 153 uM [9]: 2%; Plasma cAMP levels in CD-1 mice after iv PACAP38 (13 nmols/kg); antibody 10 mg/kg sc [10]: 715 nM; Kd [11]: 0.0128 nM
205 pM	243 pM	212 pM	515 pM	> 100000 pM	4.2%	15.1%	92.7%	86.5%	73%	20.3%	16.4%	19.8%	26%	9.4%	76.5%	74%	64.5%	31.3%	0.0105 nM	Exemplified Antibody D (antibody, human IgG4 S228P, kappa, F234A L235A, V domains shown, IgG4, kappa light chain; also called Exemplified Ab D; Ab D) VH: EVQLLESGGGLVQPGGSLRLSCAASGFTFSSYYMSWVRQAPGKGLEWVSAISLSGGSTYYAQSHKGRFTISRDNSKNTLYLQMNSLRAEDTAVYYCVREVGASTHNYYGMDVWGQGTMVTVSS VL: DIQMTQSPSSLSASVGDRVTITCRASQSIWRWLAWYQQKPGKAPKLLIHDASQLFEGVPSRFSGSGSGTDFTFTISSLQPEDIATYYCQQFDLLPLTFGGGTKVEIKR	Percentage tryptase release upon addition of PACAP38; antibody dose 5.6 uM [9]: 25.9%; Percentage tryptase release upon addition of PACAP38; antibody dose 17 uM [9]: 19.6%; Percentage tryptase release upon addition of PACAP38; antibody dose 51 uM [9]: 14.7%; Percentage tryptase release upon addition of PACAP38; antibody dose 153 uM [9]: 1.7%; Plasma cAMP levels in CD-1 mice after iv PACAP38 (13 nmols/kg); antibody 10 mg/kg sc [10]: 560 nM; Kd [11]: 0.009 nM
554 pM	714 pM	2250 pM	781 pM	> 100000 pM															0.037 nM	Exemplified Antibody A (antibody, human IgG4 S228P, kappa, F234A L235A, V domains shown, IgG4, kappa light chain; also called Exemplified Ab A; Ab A) VH: EVQLLESGGGLVQPGGSLRLSCAASGFTFSSYYMSWVRQAPGKGLEWVSAISLSGGSTYYADSHKGRFTISRDNSKNTLYLQMNSLRAEDTAVYYCVREVGASNHNYYGMDVWGQGTMVTVSS VL: DIQMTQSPSSLSASVGDRVTITCRASQSISRWLAWYQQKPGKAPKLLIHDASQLLEGVPSRFSGSGSGTDFTFTISSLQPEDIATYYCQQFDLLPLTFGGGTKVEIKR	
303 pM	325 pM	311 pM	595 pM	> 100000 pM	5.5%	14.2%	85.8%	85.2%	55.4%	10.4%	11.5%	8%	17.8%	9.7%	80.3%	77.6%	66.6%	26.5%	0.0145 nM	Exemplified Antibody C (antibody, human IgG4 S228P, kappa, F234A L235A, V domains shown, IgG4, kappa light chain; also called Exemplified Ab C; Ab C) VH: EVQLLESGGGLVQPGGSLRLSCAASGFTFSSYYMSWVRQAPGKGLEWVSAISLSGGSTYYAESHKGRFTISRDNSKNTLYLQMNSLRAEDTAVYYCVREVGASTHNYYGMDVWGQGTMVTVSS VL: DIQMTQSPSSLSASVGDRVTITCRASQSIWRWLAWYQQKPGKAPKLLIHDASQLFEGVPSRFSGSGSGTDFTFTISSLQPEDIATYYCQQFDLLPLTFGGGTKVEIKR	Percentage tryptase release upon addition of PACAP38; antibody dose 5.6 uM [9]: 21.9%; Percentage tryptase release upon addition of PACAP38; antibody dose 17 uM [9]: 15.5%; Percentage tryptase release upon addition of PACAP38; antibody dose 51 uM [9]: 12.1%; Percentage tryptase release upon addition of PACAP38; antibody dose 153 uM [9]: 2.8%; Plasma cAMP levels in CD-1 mice after iv PACAP38 (13 nmols/kg); antibody 10 mg/kg sc [10]: 666 nM; Kd [11]: 0.0146 nM
